Residue numbers refer to the chain shown, from its start.
T1: IL-17RB.Fc (extracellular domain of human IL-17RB fused to the Fc region of human IgG) (human, UniProt Q9NRM6 18-292)
T1 construct: extracellular domain; also called HuIL-17RB: Fc; IL-17RB Fe; not shown: Fc region of human IgG1
T1 sequence (looked up): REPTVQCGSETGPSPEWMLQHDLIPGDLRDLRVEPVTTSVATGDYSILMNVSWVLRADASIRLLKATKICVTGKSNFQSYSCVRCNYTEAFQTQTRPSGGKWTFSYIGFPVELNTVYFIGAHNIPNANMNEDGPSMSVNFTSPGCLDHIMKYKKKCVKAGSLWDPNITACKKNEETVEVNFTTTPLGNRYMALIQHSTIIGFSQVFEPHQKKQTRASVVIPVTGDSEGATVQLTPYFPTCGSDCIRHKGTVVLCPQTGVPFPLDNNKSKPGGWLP

B1: Human IL-17RD.HIS (receptor, UniProt Q8NFM7 27-299, looked up)
chain: AGGSGRARGADTCGWRGVGPASRNSGLYNITFKYDNCTTYLNPVGKHVIADAQNITISQYACHDQVAVTILWSPGALGIEFLKGFRVILEELKSEGRQCQQLILKDPKQLNSSFKRTGMESQPFLNMKFETDYFVKVVPFPSIKNESNYHPFFFRTRACDLLLQPDNLACKPFWKPRNLNISQHGSDMQVSFDHAPHNFGFRFFYLHYKLKHEGPFKRKTCKQEQTTETTSCLLQNVSPGDYIIELVDDTNTTRKVMHYALKPVHSPWAGPIR
notes: R&D Systems product; not shown: HIS tag
B2: 3.1545.1 (antibody, V domains shown)
VH: EVQLVESGGGSVQPGGSLRLSCAASGFTFSSYSMNWVRQAPGKGLEWVSIISSRSSIIHYADSVKGRFTISRDNAKNSLYLQMNSLRDEDTAVYYCARPKVGGGMDVWGQGTTVTVSS
VL: DIQMTQSPSSLSASVGDRVTITCRASQGISNYLAWYQQKPGKFPELLIYAASTLQSGVPSRFSGSGSGTDFTLTISSLQPEDVATYYCQKYNRAPFTFGPGTKVDIK
B3: 2.67.1 (antibody, V domains shown)
VH: QVQLVQSGAEVKKPGASVKVSCKASGYTLTRYGISWVRQAPGQGLEWMGWISAYNGNTNYAQKLQGRVTMTTDTSTSTAYMELRSLRSDDTAVYYCARRDYDILTGYYNGFDPWGQGTLVTVSS
VL: DIQMTQSPSSLSASVGDRVTITCRASQGIRNDLGWYQQKPGKAPKRLIYAASSLQSGVPSRFSGSGSGTEFTLTISSLQPEDFATYYCLQHKSYPLTFGGGTKVEIK
B4: 2.98.1 (antibody, V domains shown)
VH: B3 VH
VL: B3 VL
B5: 2.46.1 (antibody, V domains shown)
VH: B3 VH with Y27N, L29F, R31G, K63N
VL: B3 VL
B6: 2.225.1 (antibody, V domains shown)
VH: B3 VH with A9V
VL: B3 VL
B7: 1.185.1 (antibody, V domains shown)
VH: QVQLVESGGGVVQPGRSLRLSCAASGINFSSYGMHWVRQAPGKGLEWVAVIWYDGSNKHYADSVKGRFTISRDNSKNTLYLQMNSLRAEDTAVYYCARDTGVYWGQGTLVTVSS
VL: not shown
B8: 4.357.1 (antibody, V domains shown)
VH: QVQLVQSGAEVKKPGASVKVSCKASGYTLTSYGISWVRQAPGQGLEWMGWISTYKGNTNYAQKLQGRVTMTTDTSTSTAYMELRSLRSDDTAVYYCARKQLVFDYWGQGTLVTVSS
VL: EIVMTQSPATLSVSPGERATLSCRASQSISSSLAWYQQKPGQAPRLLIYGASTRATGIPARFSGSGSGTEFTLTISSLQSENFAVYYCQQYDNWPLTFGGGTKVEIK
B9: 4.393.1 (antibody, V domains shown)
VH: B8 VH with L29F, T53A, K55N, N59K, A79V
VL: B8 VL with S31T, A51T, N82D, Y87F, N93I

target: T1, IL-17RB.Fc (extracellular domain of …); assay: co-immunoprecipitation on Protein G beads, Western blot

Binder | binding result
B1 | no binding (tested: 2 micrograms of each protein)

target: T2, IL-17RA.Fc (extracellular domain of human IL-17RA fused to the Fc region of human IgG) (human, UniProt Q96F46 33-320); assay: as above
T2 construct: extracellular domain; also called IL-17RA Fe; not shown: Fc region of human IgG1

Binder | binding result
B1 | no binding (tested: 2 micrograms of each protein)

target: human IL-17RA (human, UniProt Q96F46 33-866); assay: cell-based or functional assay

Binder | % Inhib. of IL-5 production, TSLP treated human PBMC + IL-2 + IL-25, Expt. 1 | % Inhib. of IL-5 production, TSLP treated human PBMC + IL-2 + IL-25, Expt. 2 | % Inhib. of IL-5 production, TSLP treated human PBMC + IL-2 + IL-25, Expt. 3
B2 | 0% | 43% | 0%
B3 | 0% | 13% | 3%
B4 | 0% | 79% | 0%
B5 | 0% | 6% | 0%
B6 | 0% | – | 0%
B7 | 0% | 41% | 9%
B8 | 0% | – | 11%
B9 | 28% | 72% | 45%

Source: US20160208004A1 (published 2016)
